According to patent US20070071750A1 (UNIVERSIDAD NACIONAL AUT NOMA DE M XICO UNAM, published 2007):

How the values were obtained:
[1] = molecular target: toxin Cll2 from Centruroides limpidus limpidus (Centruroides limpidus limpidus, UniProt P59898 1-66); experiment: phage ELISA, Cll2 coated at 3 µg/ml, anti-M13-HRP, Abs. 492 nm
BSA = molecular target: T1, BSA (Bos taurus, UniProt P02769); experiment: phage ELISA, BSA coated, anti-M13-HRP, Abs. 492 nm
T1 construct: also called bovine serum albumin

[2] = molecular target: T2, toxin Cll1 from Centruroides limpidus limpidus (Centruroides limpidus limpidus, UniProt P45667 1-66); experiment: phage ELISA, Cll1 coated at 3 µg/ml, anti-M13-HRP, Abs. 492 nm
T2 sequence: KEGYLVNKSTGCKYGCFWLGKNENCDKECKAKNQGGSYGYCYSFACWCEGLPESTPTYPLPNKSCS

[3] = molecular target: T3, toxin Cn2 from Centruroides noxius Hoffmann scorpion venom (Centruroides noxius Hoffmann, UniProt P01495 17-82); experiment: SPR (Biacore), Cn2 immobilised, soluble scFv injected
T3 construct: mature; also called Cn2 toxin; formerly 11-9.2.2

B1: scFv 3F (scFv)
scFv: EVQLVESGGGLVQPGGSLRLSCAGSGFTFDNYAMHWIRQVPGEGLEWVSGISRSSGDIGYADSVKGRFTISRDNAKKSLSLQMNSLRAEDTAVYYCARGGVGSFDTWGQGTMVTVSSGGGGSGGGGSGGGGSEIVLTQSPATLSVSPGERATLSCRASQSVRSYLAWYQQKPGQAPRLLISDASNRATGIPARFTGSGSGTDFTLTISSLEPEDFAIYYCQQYRYSPRTFGQGTKVEIKR
notes: also called clone 3F; phage-antibody 3F
**Q.** Does B1 bind [1]?
**A.** Result: no binding (tested: 1x10^11 phages/ml)

**Q.** Does B1 bind (BSA)?
**A.** Result: no binding (tested: 1x10^11 phages/ml)

**Q.** Does B1 bind [2]?
**A.** Result: no binding (tested: 1x10^11 phages/ml)

B2: scFv C1 (scFv)
scFv: QVNLRESGGGLVQPGGSLRLSCAASGFSFGSYGMHWVRQAPGKGLEWVAVISYDGSNKYYADSVKGRFTISRDNSKNTLYLQMNSLRAEDTAVYYCAKDARDCLMCADWYFDLWGRGTLVTVSSGGGGSGGGGSGGGGSNFMLTQPHSASGTPGQRVTISCSGSSSNIGSNTVNWYRHLPGSAPELLIGSHNQRPSGVPDRFSASKSDTSASLAISGLQSEDEADYYCAAWDDSLIGYVFGTGTKLTVLG
notes: also called clone C1; phage-antibody C1
**Q.** Which results are given for B2?
**A.** binding result [1]: no binding (tested: 1x10^11 phages/ml); binding result (BSA): no binding (tested: 1x10^11 phages/ml); Kd [3]: 540 nM; koff [3]: 0.014 s⁻¹; kon [3]: 20000 M⁻¹ s⁻¹; binding result [2]: no binding (tested: 1x10^11 phages/ml)
